The values below come from the supplement of paper PMC12042874.

± gives the uncertainty stated by the source.

A short description of this data set: amyloid nucleation score (Sup35N fusion, yeast selection) (log enrichment); library NNK3; higher = more nucleation; inactive = no reads after selection. The procedure, abridged:
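The nucleation score equals the log enrichment of output over input reads from DiMSum, centred on the mode score of non-aggregating sequences. It was computed only for sequences with 100 or more input reads. The reads came from Illumina sequencing of plasmid inserts from psi-negative yeast expressing Sup35N fused to peptides of 20 random codons, induced with 100 μM copper sulfate for 24 hours and grown 7 days at 30°C without adenine and uracil.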
YTFTRV: the amyloid nucleation score entry is “inactive”.
With MSCYVV, the amyloid nucleation score result was “inactive”.
Regarding QSVSVGLCCWAMPVK, the amyloid nucleation score result is “inactive”.
For FVVFIRDIICMVNNFMLMRM, the amyloid nucleation score entry is “inactive”.
Regarding IWLRVITLERLEPQM, the amyloid nucleation score entry was “inactive”.
As for TLSLPLMTRWSLYLCSDWAS, the amyloid nucleation score result is “inactive”.
Consider IVYTMCDFWSSMDLVDNLQG, for which the amyloid nucleation score result was “inactive”.
Then IRSVL, with “inactive”.
As for SYRFYDDQSLCG, the amyloid nucleation score entry was “inactive”.
Then SRMTIIWVTVRISRNGTWNF, with “inactive”; and LGLILIVLLVRPVFDSKRLD, with “inactive”; and VLLGTSECHSHKILQGKSAV, with “inactive”.
As for GGMYKNWGCWLELLGKTLPW, the amyloid nucleation score entry is “inactive”.
With SLFKEWAWA, the amyloid nucleation score entry is “inactive”.
With WFFDTDIFHCEFEKMYYPLV, the amyloid nucleation score entry was “inactive”.
FGYVQVTKDPSFMCNYGMQS: the amyloid nucleation score result was “inactive”.
In the case of NQEVSTGNILGLLAVTSCRD it was “inactive”; in that of VYASCTFNIEKVLSVVQTTF, 1.52 ± 0.087; in that of NCYRRTLHSSWREWIWPIGC, -0.062 ± 0.82.
In the case of RSPEFCMS, the amyloid nucleation score result is “inactive”.
Take NVKTGNKPRDTQSRYVLPES: the amyloid nucleation score entry was “inactive”.
In the case of RNEDLSA it was -0.096 ± 0.66; in that of GIWDWVLAIMLRFVTKPS, “inactive”; in that of LRWYPDSCYVSV, “inactive”.
In the case of LKTCFIP it was “inactive”.
YASYGSKGGITTLRRIISGS: the amyloid nucleation score result is “inactive”.
Take FLRLSMKLHNLWYLLGSLWS: the amyloid nucleation score entry is “inactive”.
Turning to HGMVRCKSDQACDSMVGCVR, the amyloid nucleation score entry was “inactive”.
With SSFQSYYTSSDMTEF, the amyloid nucleation score result is “inactive”.
In the case of EGFPV, the amyloid nucleation score result is “inactive”.
For VMCLRRMSFQCMQSQMEALA, the amyloid nucleation score entry is “inactive”.
VFFYSDHVLCVYFVSLYSFS: the amyloid nucleation score turned out to be 0.386 ± 0.42.
Consider NAFICGSRYQVVKDSDDHCM, for which the amyloid nucleation score result was “inactive”.
For the substance NELCVTFLGCRPYVPA, the amyloid nucleation score is -0.469 ± 1.1.
For the substance YFEVDNLRRIQRRLICLGPE, the amyloid nucleation score came to 0.891 ± 0.27.
Regarding TAYMNQIVNRELYP, the amyloid nucleation score result was “inactive”.
For VCRGQRISACQSRSVCGCWH, the amyloid nucleation score result is “inactive”.
As for KSYLVFDPWGPAKSLFYTDM, the amyloid nucleation score result is “inactive”.
Take SALPQH: the amyloid nucleation score entry was “inactive”.
For the substance EDSRLLGC, the amyloid nucleation score worked out at 0.724 ± 0.14.
In the case of VCEQYFGRCNLRNKFCIWTL it was “inactive”; in that of ASRPFFRPVRQVSEVLPGQW, 0.058 ± 1.1; in that of SNLSNPLIVMKFYQAAMGVH, “inactive”.
As to DTVMRSVLEAIVYINKIFVR, the amyloid nucleation score entry was “inactive”.
Regarding KVVMGVGLQRDESGIEGQLG, the amyloid nucleation score result was “inactive”.
As for FTMMCVYMSWQSGSQRTVTI, the amyloid nucleation score entry was “inactive”.
Then SWIKEFIQFIFIEGFRC, with “inactive”; and TIHHRCCSKWKSAWRAYWSI, with “inactive”; and CSCWTISLFCLWQTLRFPPI, with 0.438 ± 0.23.
As to FIGDVLGSINGKCHLEYLYF, the amyloid nucleation score result is “inactive”.
SPLLGINYRVFNVCLLERR yielded an amyloid nucleation score of 0.909 ± 0.21.
Take PFSFKLPR: the amyloid nucleation score result is “inactive”.
In the case of LYLGTSYHRNC it was “inactive”; in that of LKYIDTSFMLGFSIVSLRFQ, “inactive”.
For the substance ILIGWMILWAICLPKLVDDG, the amyloid nucleation score entry is “inactive”.
In the case of GVLSCLSIMIAISGLPGSEK it was 0.801 ± 0.2.
For MKSKKPNSLDENYGSMRHF, the amyloid nucleation score result is “inactive”.
Turning to GSSCRRINTEYSLAAYQSYE, the amyloid nucleation score entry is “inactive”.
For the substance LHVPGLIYF, the amyloid nucleation score entry is “inactive”.
Consider VEGATWHTWSCVNHVVVKGF, for which the amyloid nucleation score result is “inactive”.
Substance WMDIYW gave an amyloid nucleation score of 0.403 ± 0.24.
Consider MQSNCTVMTNPNDKRMAAWW, for which the amyloid nucleation score entry is “inactive”.
In the case of CPYVKSHSICDDSSGLPRLK it was “inactive”; in that of VVSIAIGKYNDRSMWW, 1.75 ± 0.071; in that of VRVMNGTRTSCLVR, -0.834 ± 1.
Turning to INICLLLKQRHEWMCCKNCM, the amyloid nucleation score turned out to be 2.85 ± 0.074.
For the substance SFDCRRSSRL, the amyloid nucleation score entry is “inactive”.
Regarding RILLFMHPMSICMSP, the amyloid nucleation score entry was “inactive”.
With TGLLLIRIKGH, the amyloid nucleation score result is “inactive”.
Regarding YIWTMWSSSLCVLMGAKGAA, the amyloid nucleation score result was “inactive”.
Take SPVAYRSTWFVFRNNSHYDQ: the amyloid nucleation score result is “inactive”.
In the case of PFLPAANNCVKQRCCFSGAL it was “inactive”.
Then PVNEFYYLFCKRVYPCALQI, with 0.295 ± 0.53; and FLTFHGC, with “inactive”.
Then LYITMRNVF, with “inactive”; and KLLSMGVSTKRRT, with “inactive”.
For the substance NNDMCLYLTGRRFKG, the amyloid nucleation score entry was “inactive”.
SQVVSRSLVRLEQRNAQKSV: the amyloid nucleation score result is “inactive”.
As for SVNWMVSKLRSPNSQGLAIE, the amyloid nucleation score entry was “inactive”.
On to DWLMPIFQVNIEMLWLSWLW, for which the amyloid nucleation score entry is “inactive”.
In the case of RTSAHGNYFSQLESLRKMML, the amyloid nucleation score entry was “inactive”.
With GHPGNSAEADKCGHRQRRP, the amyloid nucleation score entry is “inactive”.
KCGFLTSPHMFSLK: the amyloid nucleation score result is “inactive”.
In the case of VNIAETFSRHDPSHLWSYKS, the amyloid nucleation score entry was “inactive”.
Consider LKAYKFMSSNQHTRTAFLGD, for which the amyloid nucleation score result is “inactive”.
For EDFLNSWKVSYWKNHTMVVW, the amyloid nucleation score entry is “inactive”.
Then PFSRTERRFYK, with -0.463 ± 1.7; and RRVTRSSKAYRVGVSWDGIG, with 0.047 ± 0.33.
Consider EWGTWSTY, for which the amyloid nucleation score result is “inactive”.
Turning to AHLTSVYVKTPSFEINISNK, the amyloid nucleation score entry was “inactive”.
Take LLYFSVLRSEL: the amyloid nucleation score result was “inactive”.
For LCHRY, the amyloid nucleation score entry was “inactive”.
Turning to DYYGLK, the amyloid nucleation score entry was “inactive”.
Then LNTKEYLLYKRICTSNANLL, with -0.621 ± 1.1.
Regarding GDSIRSWNRGAVEIA, the amyloid nucleation score is -0.377 ± 1.5.
Substance VGGGSFCFKHRLNGGTDGHV registered an amyloid nucleation score of 1.11 ± 0.13.
Then WRVSLWLGWNLFWTCSNPAD, with “inactive”; and CTHLLFCPMGRVSTCSLKME, with “inactive”; and ARYRHGFTALRND, with “inactive”.
The substance TNNCCNLLCMIQNPESCSFA yielded an amyloid nucleation score of 3.12 ± 0.065.
With CRPRLVLSFGQIVY, the amyloid nucleation score result was “inactive”.
For DTYIGNINESMH, the amyloid nucleation score entry was “inactive”.
As for LAFVANY, the amyloid nucleation score result was “inactive”.
Then NTFVPVLVFGFYYVLIMISN, with “inactive”.
Then LRCWYFLNMMMPYPPPSIKW, with “inactive”.
With RTFIKAKLP, the amyloid nucleation score entry was “inactive”.
Regarding IGYGGSIPRHSTCDVSLQRW, the amyloid nucleation score entry is “inactive”.
Then ISKAVSWCASCRSTQV, with “inactive”; and RECSNSVVLFLDVTHRVVRT, with “inactive”.
Then TKMDETDLLMFAVLTGGLNG, with “inactive”.
As to FKGPVDCSVIV, the amyloid nucleation score entry was “inactive”.
Turning to AWMCIHLYICCMILCGRRGW, the amyloid nucleation score entry was “inactive”.
Regarding VLCLLGSSVSS, the amyloid nucleation score entry is “inactive”.
In the case of RSCCLQPT, the amyloid nucleation score entry is “inactive”.
Regarding AWCKGV, the amyloid nucleation score result is “inactive”.
For the substance WVCTVVLVKDLPPRRSVLVG, the amyloid nucleation score result was “inactive”.
LVTSTSMG showed an amyloid nucleation score of 2.77 ± 0.068.
In turn, RWTLYSLSTYYQLCF had an amyloid nucleation score of 0.685 ± 0.12.
The substance NLDIWNLRQWSGVVYLV had an amyloid nucleation score of 0.751 ± 0.14.
Substance NLSWVLAILCCGL registered an amyloid nucleation score of 1.39 ± 0.15.
As for KFADQALTHSQYATFLTGLY, the amyloid nucleation score entry was “inactive”.
Then KREECILWLPLGNLLYNVLR, with “inactive”; and SICIRFF, with “inactive”.
For the substance DVCLGWAQTAFRCLMRG, the amyloid nucleation score result was “inactive”.
SAVVMRSQADSFDYLN: the amyloid nucleation score entry was “inactive”.
Then QEGWCWSYLVAGGWV, with “inactive”; and AFLGEEVNSTLLKS, with “inactive”.
As to VGFPPSSTSRCR, the amyloid nucleation score result is “inactive”.
In turn, STWYSRCVLALNLLLSCNRG displayed an amyloid nucleation score of 1.38 ± 0.13.
CEKGLFLFSFSKFTSYPPGM displayed an amyloid nucleation score of -0.435 ± 0.55.
Regarding FYSLWRNRYNNSNQEWDIRW, the amyloid nucleation score result was “inactive”.
Take KDHLHRRYMGRTAVLREIDI: the amyloid nucleation score entry is “inactive”.
